The record followed here is US20090053198A1 (published 2009).

This experiment addresses T1, human E-selectin on CHO-E cells (human, UniProt P16581 22-610).
T1 construct: whole, on cells
T1 sequence (looked up): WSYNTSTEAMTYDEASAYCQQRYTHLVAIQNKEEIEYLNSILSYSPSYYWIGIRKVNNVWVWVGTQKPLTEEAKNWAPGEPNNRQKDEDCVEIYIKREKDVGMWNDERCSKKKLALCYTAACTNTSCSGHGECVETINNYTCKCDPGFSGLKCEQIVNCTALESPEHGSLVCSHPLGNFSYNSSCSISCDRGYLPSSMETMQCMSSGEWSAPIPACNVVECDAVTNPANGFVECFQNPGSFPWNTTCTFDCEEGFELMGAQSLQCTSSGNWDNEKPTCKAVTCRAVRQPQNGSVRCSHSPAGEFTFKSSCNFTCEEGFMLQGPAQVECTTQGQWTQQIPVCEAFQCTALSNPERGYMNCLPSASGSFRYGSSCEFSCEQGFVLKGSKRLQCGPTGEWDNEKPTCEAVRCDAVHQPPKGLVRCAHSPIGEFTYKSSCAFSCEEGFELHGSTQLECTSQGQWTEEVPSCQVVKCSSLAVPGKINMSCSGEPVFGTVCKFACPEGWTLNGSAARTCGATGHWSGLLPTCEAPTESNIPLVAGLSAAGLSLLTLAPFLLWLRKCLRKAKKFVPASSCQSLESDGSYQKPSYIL
The experiment is described as follows: blot rolling assay: CHO-E perfused at 0.6 dyne/cm^2 over blotted ML-M membrane glycoproteins (˜130 kDa band). An excerpt: Blot rolling assays: The blot rolling assay has been described previously²⁹. CHO-E were washed in PBS, and resuspended to 2×10⁶ cells/ml in assay buffer/10% glycerol. […] These blots were then placed in the parallel plate flow chamber, and CHO-E were perfused into the chamber at a shear stress of 0.6 dyne/cm²; an adjustment in the volumetric flow rate was made to account for the increase in viscosity due to the presence of 10% glycerol in the assay buffer. Molecular weight standards (SeeBlue® Plus2 prestained molecular weight standard; Invitrogen Corporation; Carlsbad, Calif.) were co-electrophoresed on adjacent lanes and served as a guide to aid placement of the flow chamber over the stained bands of interest. The number of tethering and rolling CHO-E was tabulated as function of the molecular weight region and compiled into an adhesion histogram. Negative controls were prepared by adding 10 mM EDTA to the assay buffer to chelate Ca²⁺ required for binding or treating CHO-E with anti E-selectin mAb, 68-5411, at 4° C. for 15 min. prior to use in adhesion assays.
For these experiments, we could not assess binding interactions over the entire lane due to the length restriction of the flow chamber; because the differences in HECA-reactivity in proteins from ML and NL clustered within mobilities encompassing 30 kDa-170 kDa, we set the field view over this range. […]

B1: PSGL-1 (P-selectin glycoprotein ligand-1) of G-CSF mobilized leukocytes (ligand, human, UniProt Q14242 42-412, looked up)
chain: QATEYEYLDYDFLPETEPPEMLRNSTDTTPLTGPGTPESTTVEPAARRSTGLDAGGAVTELTTELANMGNLSTDSAAMEIQTTQPAATEAQTTQPVPTEAQTTPLAATEAQTTRLTATEAQTTPLAATEAQTTPPAATEAQTTQPTGLEAQTTAPAAMEAQTTAPAAMEAQTTPPAAMEAQTTQTTAMEAQTTAPEATEAQTTQPTATEAQTTPLAAMEALSTEPSATEALSMEPTTKRGLFIPFSVSSVTHKGIPMAASNLSVNYPVGAPDHISVKQCLLAILILALVATIFFVCTVVLAVRLSRKGHMYPVRNYSPTEMVCISSLLPDGGEGPSATANGGLSKAKSPGLTPEPREDREGDDLTLHSFLP
modifications: sialofucosylated (HECA-452-reactive) glycans; positions not given
notes: Native glycoprotein from donor cells; seen as ˜220 kDa dimer and ˜130 kDa monomer on blots; also called ˜220 kDa band (dimer); ˜130 kDa band (monomer)
For the molecule B1, the binding result is “binds”.
